Data reported in the supplement of paper PMC9732359.
± gives the uncertainty stated by the source.

Assay: protein stability index of a GFP-peptide fusion (yeast GPS) (PSI 1-4); higher = more stable; sorted into four equal gates, so the index is relative within each strain
In short: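 Plasmids in a pooled yeast library fused tiled 17-residue yeast protein peptides downstream of GFP and also expressed Cherry. Mid-log cultures grown without leucine were sorted into four equal gates by GFP/Cherry fluorescence ratio. Each gate's plasmids were PCR-amplified and Illumina-sequenced, and reads were matched to strains by barcodes. The protein stability index is derived by multiplying each gate's read frequency by its gate number and summing the results.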

## KMELVYVSDSDDSSSDN [SIR4]
doa10∆
  protein stability index: 2.7 ± 0.059
pdr5∆
  protein stability index: 2.68 ± 0.058
san1∆
  protein stability index: 2.47 ± 0.078
ubr1∆
  protein stability index: 2.59 ± 0.067

## KMFIQRILAMCVKNHGQ [YCS4]
doa10∆
  protein stability index: 1.69 ± 0.062
pdr5∆
  protein stability index: 2.1 ± 0.055
san1∆
  protein stability index: 2.22 ± 0.071
ubr1∆
  protein stability index: 1.92 ± 0.057

## KMIDFATLSKLKKKYQI [SIR3]
doa10∆
  protein stability index: 2.9 ± 0.11
pdr5∆
  protein stability index: 3.35 ± 0.1
san1∆
  protein stability index: 3.53 ± 0.051
ubr1∆
  protein stability index: 3.47 ± 0.048

## KMNNKPERFMVFQLPTR [RPC53]
doa10∆
  protein stability index: 2.38 ± 0.063
pdr5∆
  protein stability index: 2.75 ± 0.056
san1∆
  protein stability index: 2.65 ± 0.085
ubr1∆
  protein stability index: 2.83 ± 0.058

## KMSVTCNAQPITRSVMR [BRR2]
doa10∆
  protein stability index: 2.47 ± 0.06
pdr5∆
  protein stability index: 2.67 ± 0.057
san1∆
  protein stability index: 2.72 ± 0.056
ubr1∆
  protein stability index: 2.5 ± 0.037

## KNAQYHLLVKQGDGLLT [RPN7]
doa10∆
  protein stability index: 1.96 ± 0.1
pdr5∆
  protein stability index: 1.61 ± 0.079
san1∆
  protein stability index: 1.12 ± 0.18
ubr1∆
  protein stability index: 1.22 ± 0.08

## KNATEELLRLANEQLKL [CSN12]
doa10∆
  protein stability index: 3 ± 0.071
pdr5∆
  protein stability index: 2.93 ± 0.058
san1∆
  protein stability index: 2.89 ± 0.077
ubr1∆
  protein stability index: 2.8 ± 0.094

## KNDKLIKIEDFVDDMLR [SNF5]
doa10∆
  protein stability index: 2.88 ± 0.063
pdr5∆
  protein stability index: 2.73 ± 0.066
san1∆
  protein stability index: 1.98 ± 0.078
ubr1∆
  protein stability index: 2.68 ± 0.07

## KNDNIKKSVNKLDKQIN [POP6]
doa10∆
  protein stability index: 2.78 ± 0.049
pdr5∆
  protein stability index: 2.87 ± 0.059
san1∆
  protein stability index: 2.73 ± 0.059
ubr1∆
  protein stability index: 2.78 ± 0.046

## KNFIESESVGAFLSFLA [YJL039C/NUP192]
doa10∆
  protein stability index: 2.1 ± 0.066
pdr5∆
  protein stability index: 2.25 ± 0.068
san1∆
  protein stability index: 2.47 ± 0.066
ubr1∆
  protein stability index: 2.85 ± 0.045

## KNFKGIEEIEYNVKNII [PCI8]
doa10∆
  protein stability index: 3.05 ± 0.078
pdr5∆
  protein stability index: 3.04 ± 0.093
san1∆
  protein stability index: 3.11 ± 0.061
ubr1∆
  protein stability index: 3.05 ± 0.063

## KNGNEYNEFLYSKAGRE [QCR8]
doa10∆
  protein stability index: 2.77 ± 0.064
pdr5∆
  protein stability index: 3 ± 0.081
san1∆
  protein stability index: 2.77 ± 0.06
ubr1∆
  protein stability index: 2.75 ± 0.05

## KNKGLVVSPYDYNHKRV [DIB1]
doa10∆
  protein stability index: 3.18 ± 0.12
pdr5∆
  protein stability index: 3.19 ± 0.11
san1∆
  protein stability index: 3.02 ± 0.14
ubr1∆
  protein stability index: 3.35 ± 0.17

## KNLISRINTLPQVQLPV [ECM29]
doa10∆
  protein stability index: 2.85 ± 0.13
pdr5∆
  protein stability index: 2.86 ± 0.1
san1∆
  protein stability index: 2.9 ± 0.16
ubr1∆
  protein stability index: 2.83 ± 0.17

## KNLKDTASVEKAEFSKE [YIL149C/MLP2]
doa10∆
  protein stability index: 3.07 ± 0.083
pdr5∆
  protein stability index: 3.19 ± 0.091
san1∆
  protein stability index: 3.09 ± 0.1
ubr1∆
  protein stability index: 3.24 ± 0.081

## KNLKPQEQLKNVKNDVS [YIL149C/MLP2]
doa10∆
  protein stability index: 3.23 ± 0.089
pdr5∆
  protein stability index: 3.21 ± 0.067
san1∆
  protein stability index: 2.51 ± 0.1
ubr1∆
  protein stability index: 3.01 ± 0.096

## KNSTSSMTAVPKPLKFL [RPN1]
doa10∆
  protein stability index: 2.03 ± 0.071
pdr5∆
  protein stability index: 2.31 ± 0.072
san1∆
  protein stability index: 1.98 ± 0.062
ubr1∆
  protein stability index: 2.15 ± 0.069

## KNTEEGKALVHHYEECA [QCR6]
doa10∆
  protein stability index: 3.37 ± 0.067
pdr5∆
  protein stability index: 3.29 ± 0.072
san1∆
  protein stability index: 3.5 ± 0.051
ubr1∆
  protein stability index: 3.38 ± 0.052

## KNTELSYDFLPLSNIKA [RPN12]
doa10∆
  protein stability index: 3.13 ± 0.075
pdr5∆
  protein stability index: 2.85 ± 0.074
san1∆
  protein stability index: 3.08 ± 0.086
ubr1∆
  protein stability index: 3.09 ± 0.068

## KNVKHSGNIQLDEIIEI [RPL12A]
doa10∆
  protein stability index: 3.24 ± 0.071
pdr5∆
  protein stability index: 3.2 ± 0.067
san1∆
  protein stability index: 3.15 ± 0.053
ubr1∆
  protein stability index: 3.22 ± 0.065

## KNVNIEDITEPKPDKPS [ESC2]
doa10∆
  protein stability index: 2.96 ± 0.094
pdr5∆
  protein stability index: 3.1 ± 0.099
san1∆
  protein stability index: 2.51 ± 0.1
ubr1∆
  protein stability index: 2.94 ± 0.13

## KNVRTRIKLATTSERVS [RRI1]
doa10∆
  protein stability index: 2.6 ± 0.058
pdr5∆
  protein stability index: 2.56 ± 0.058
san1∆
  protein stability index: 2.8 ± 0.086
ubr1∆
  protein stability index: 2.36 ± 0.074

## KNYLKNYILNFKQSNSE [CDC53]
doa10∆
  protein stability index: 2.6 ± 0.044
pdr5∆
  protein stability index: 1.95 ± 0.043
san1∆
  protein stability index: 2.34 ± 0.083
ubr1∆
  protein stability index: 1.89 ± 0.037

## KPAFSFGAKSDEKKDSD [YJL041W/NSP1]
doa10∆
  protein stability index: 3.35 ± 0.087
pdr5∆
  protein stability index: 3.25 ± 0.069
san1∆
  protein stability index: 3.21 ± 0.058
ubr1∆
  protein stability index: 3.46 ± 0.056

## KPAFSFGINTNTTKTAD [YLR335W/NUP2]
doa10∆
  protein stability index: 2.98 ± 0.098
pdr5∆
  protein stability index: 3.09 ± 0.1
san1∆
  protein stability index: 3.11 ± 0.063
ubr1∆
  protein stability index: 3.46 ± 0.064

## KPALGSLGSSSTTASGT [YGR119C/NUP57]
doa10∆
  protein stability index: 3.22 ± 0.085
pdr5∆
  protein stability index: 3.3 ± 0.084
san1∆
  protein stability index: 3.05 ± 0.062
ubr1∆
  protein stability index: 3.06 ± 0.1

## KPMNKGQHKNNTSLNIN [SWP82]
doa10∆
  protein stability index: 2.92 ± 0.092
pdr5∆
  protein stability index: 2.84 ± 0.091
san1∆
  protein stability index: 2.91 ± 0.066
ubr1∆
  protein stability index: 2.98 ± 0.059

## KPNLNYFKSILLNKNTG [SWI1]
doa10∆
  protein stability index: 2.17 ± 0.058
pdr5∆
  protein stability index: 2.19 ± 0.044
san1∆
  protein stability index: 1.76 ± 0.066
ubr1∆
  protein stability index: 1.75 ± 0.038

## KPSNGKGSRKSSKAATP [SNF12]
doa10∆
  protein stability index: 3 ± 0.085
pdr5∆
  protein stability index: 3.02 ± 0.076
san1∆
  protein stability index: 3.24 ± 0.079
ubr1∆
  protein stability index: 3.239 ± 0.027

## KPTSPFIDSICKLFDKI [SRB8]
doa10∆
  protein stability index: 1.56 ± 0.04
pdr5∆
  protein stability index: 1.93 ± 0.035
san1∆
  protein stability index: 1.56 ± 0.055
ubr1∆
  protein stability index: 1.41 ± 0.034

## KPWFATVNGQARDLATM [FAS1]
doa10∆
  protein stability index: 3.01 ± 0.11
pdr5∆
  protein stability index: 3.08 ± 0.1
san1∆
  protein stability index: 3 ± 0.083
ubr1∆
  protein stability index: 3.05 ± 0.064

## KQKSWVPSYIHVEKERA [YIL149C/MLP2]
doa10∆
  protein stability index: 1.79 ± 0.058
pdr5∆
  protein stability index: 2.25 ± 0.048
san1∆
  protein stability index: 2.12 ± 0.082
ubr1∆
  protein stability index: 2 ± 0.046

## KQLVEKAELRLAIADSP [ECM29]
pdr5∆
  protein stability index: 3.38 ± 0.29
ubr1∆
  protein stability index: 3.29 ± 0.16

## KQTAAYRTPGSSGVLSS [SSN2]
doa10∆
  protein stability index: 2.88 ± 0.063
pdr5∆
  protein stability index: 3.04 ± 0.063
san1∆
  protein stability index: 2.87 ± 0.077
ubr1∆
  protein stability index: 2.88 ± 0.045

## KQYDNRITKSNEKSQAE [LRP1]
doa10∆
  protein stability index: 2.91 ± 0.087
pdr5∆
  protein stability index: 2.91 ± 0.11
san1∆
  protein stability index: 2.77 ± 0.075
ubr1∆
  protein stability index: 3.02 ± 0.037

## KRAASVARHIYMRKQVG [RPS19A]
doa10∆
  protein stability index: 1.7 ± 0.2
san1∆
  protein stability index: 1.88 ± 0.28

## KRCVGVILGDANSSTIR [RPN8]
doa10∆
  protein stability index: 2.85 ± 0.042
pdr5∆
  protein stability index: 2.77 ± 0.051
san1∆
  protein stability index: 2.82 ± 0.061
ubr1∆
  protein stability index: 2.94 ± 0.039

## KREASRGFFDILSLATE [MCD1]
doa10∆
  protein stability index: 3.08 ± 0.083
pdr5∆
  protein stability index: 3.21 ± 0.06
san1∆
  protein stability index: 2.91 ± 0.063
ubr1∆
  protein stability index: 3.11 ± 0.05

## KREGKTRLLNIVMQLRK [ISW2]
doa10∆
  protein stability index: 2.7 ± 0.078
pdr5∆
  protein stability index: 3.02 ± 0.063
san1∆
  protein stability index: 3.11 ± 0.054
ubr1∆
  protein stability index: 2.97 ± 0.057

## KRHSYAQSSHIRAIRKV [RPS1A]
doa10∆
  protein stability index: 2.399 ± 0.019
pdr5∆
  protein stability index: 2.336 ± 0.017
san1∆
  protein stability index: 2.423 ± 0.022
ubr1∆
  protein stability index: 2.446 ± 0.015

## KRLSAALSKFLTHPKYL [YML103C/NUP188]
doa10∆
  protein stability index: 2.48 ± 0.072
pdr5∆
  protein stability index: 2.25 ± 0.066
san1∆
  protein stability index: 2.84 ± 0.07
ubr1∆
  protein stability index: 2.91 ± 0.065

## KRRKLDLNNAVQKRDEV [SMC4]
doa10∆
  protein stability index: 3.41 ± 0.26
pdr5∆
  protein stability index: 2.89 ± 0.12
san1∆
  protein stability index: 2.96 ± 0.068
ubr1∆
  protein stability index: 2.96 ± 0.079

## KRSDLTGANSIYSVEKK [UBP6]
doa10∆
  protein stability index: 3.09 ± 0.12
pdr5∆
  protein stability index: 2.8 ± 0.15
san1∆
  protein stability index: 2.57 ± 0.15
ubr1∆
  protein stability index: 3.16 ± 0.056

## KRSTVPLNDGFVDLVEH [YML103C/NUP188]
doa10∆
  protein stability index: 3.06 ± 0.09
pdr5∆
  protein stability index: 2.97 ± 0.093
san1∆
  protein stability index: 3.37 ± 0.12
ubr1∆
  protein stability index: 2.69 ± 0.053

## KSEFDDLSLNIHPIPSV [YMR129W/POM152]
doa10∆
  protein stability index: 2.64 ± 0.043
pdr5∆
  protein stability index: 2.92 ± 0.039
san1∆
  protein stability index: 2.75 ± 0.032
ubr1∆
  protein stability index: 2.76 ± 0.032

## KSIIGKLTAERANLRKY [POP1]
doa10∆
  protein stability index: 2.72 ± 0.059
pdr5∆
  protein stability index: 2.92 ± 0.081
san1∆
  protein stability index: 2.8 ± 0.07
ubr1∆
  protein stability index: 2.6 ± 0.074

## KSKEDMKQLKFFKPLDY [SNU114]
doa10∆
  protein stability index: 3.32 ± 0.14
pdr5∆
  protein stability index: 3.08 ± 0.098
san1∆
  protein stability index: 3.05 ± 0.16
ubr1∆
  protein stability index: 3.29 ± 0.087

## KSKGDVDIKGEDLHEKN [NUT1]
doa10∆
  protein stability index: 3.32 ± 0.27
san1∆
  protein stability index: 3.44 ± 0.15

## KSKKSWLNRLNNWLFGW [YMR153W/NUP53]
doa10∆
  protein stability index: 2.81 ± 0.054
pdr5∆
  protein stability index: 2.66 ± 0.046
san1∆
  protein stability index: 2.51 ± 0.053
ubr1∆
  protein stability index: 2.94 ± 0.041

## KSKTSTGKERSKKRKLN [SNM1]
doa10∆
  protein stability index: 3.1 ± 0.085
pdr5∆
  protein stability index: 3.2 ± 0.097
san1∆
  protein stability index: 3.644 ± 0.036
ubr1∆
  protein stability index: 3.21 ± 0.09

## KSLGLKLPLSVINVSAQ [RPS17A]
doa10∆
  protein stability index: 1.35 ± 0.052
pdr5∆
  protein stability index: 1.36 ± 0.048
san1∆
  protein stability index: 1.41 ± 0.13
ubr1∆
  protein stability index: 1.37 ± 0.073
